Results as given in PMC9554411.

Target: MERS-CoV spike glycoprotein ectodomain (EMC strain, spike residues 1-1290), trimer (MERS-CoV (EMC strain)) (UniProt K0BRG7)
Assay: cryo-EM structure

MERS-CoV spike glycoprotein ectodomain (EMC strain, spike residues 1-1290), trimer (from UniProt K0BRG7 18-1290) (domain or fragment)
stoichiometry N: 3
